Source: patent US20140051120A1 (Genentech, published 2014)
Several values for one entry are separate records, joined by “and”; a condition that tells them apart may be missing. Equal entries are not always repeated. Where two headings read alike, the source gives them in different places. Where no end group is shown, it is not given here.

How the values were obtained:
[1] = molecular target: T1, human EGFL7 (EGFL7-CB-His) (human, UniProt Q9UHF1 23-273, limits assumed); assay: cell-based or functional assay
T1 sequence: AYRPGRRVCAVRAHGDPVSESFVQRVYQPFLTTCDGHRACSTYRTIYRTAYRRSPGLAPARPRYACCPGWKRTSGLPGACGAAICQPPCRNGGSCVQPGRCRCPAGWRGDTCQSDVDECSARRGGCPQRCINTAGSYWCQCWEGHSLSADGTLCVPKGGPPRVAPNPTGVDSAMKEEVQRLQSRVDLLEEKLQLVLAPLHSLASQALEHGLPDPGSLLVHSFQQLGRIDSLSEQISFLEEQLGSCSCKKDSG

[2] = molecular target: T2, mouse EGFL7 (mEGFL7-CB-His) (mouse, UniProt Q9QXT5 22-275); assay: cell-based or functional assay
T2 sequence: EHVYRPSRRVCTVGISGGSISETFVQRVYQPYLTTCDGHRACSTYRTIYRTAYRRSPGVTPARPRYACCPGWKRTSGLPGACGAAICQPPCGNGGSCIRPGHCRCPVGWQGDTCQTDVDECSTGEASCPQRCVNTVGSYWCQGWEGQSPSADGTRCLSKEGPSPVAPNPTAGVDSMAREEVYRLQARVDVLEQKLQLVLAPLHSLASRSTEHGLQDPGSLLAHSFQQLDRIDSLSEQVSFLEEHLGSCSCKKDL

[3] = molecular target: T3, p2S (p2 peptide biotinylated through its free cysteine) (human, also: biotinylated (maleimide PEO2-biotin) on one of the two Cys, which one not given here); assay: SPR (Biacore), binding to p2S, KD relative to ch4F11
T3 construct: The peptide has two cysteines; also called b-p2S
T3 peptide: RPRYACCPGWKRT

[4] = molecular target: T4, truncated human EGFL7 (residues 1-182) (human, UniProt Q9UHF1 24-182); assay: phage ELISA on truncated huEGFL7 immobilized on a microtiter plate
T4 construct: Expressed in CHO cells; The range as printed starts at Met 1; also called truncated EGFL7; truncated huEGFL7
T4 chain: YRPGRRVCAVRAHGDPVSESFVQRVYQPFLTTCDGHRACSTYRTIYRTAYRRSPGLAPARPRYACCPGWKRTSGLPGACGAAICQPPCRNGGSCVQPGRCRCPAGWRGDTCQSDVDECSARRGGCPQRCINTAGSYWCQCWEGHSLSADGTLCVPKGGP

[5] = molecular target: EGFL7 coated on plates in the cell adhesion assay (human or mouse, not told apart at this place); assay: cell-based or functional assay
[6] = molecular target: T3, p2S (p2 peptide biotinylated through …); assay: SPR (BIAcore-2000), IgG injected over immobilized p2S peptide;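 note: CM5 chip with immobilized peptide, IgG at 0.5–1000 nM in PBST, 3 min association and 3.5 min dissociation, reference-cell subtracted, rates fitted by 1:1 Langmuir model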
[7] = molecular target: T1, human EGFL7 (EGFL7-CB-His); assay: cell-based or functional assay; remark: listed apart in the source
[8] = molecular target: T2, mouse EGFL7 (mEGFL7-CB-His); assay: SPR (Biacore), IgG over immobilized mEGFL7-CB at 37 C;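 note: IgG injected as twofold series from 0.5 to 1000 nM, 3 min association and 3.5 min dissociation, reference flow cell subtracted, kinetics fitted to 1:1 Langmuir model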
p5 peptide of EGFL7 [9] = molecular target: T5, p5 peptide of EGFL7 (human); assay: SPR (Biacore), IgG over immobilized P5 peptide at 37 C, n = 3
T5 construct: also called Peptide P5
T5 peptide: RACSTYRTIYRTA

[10] = molecular target: T2, mouse EGFL7 (mEGFL7-CB-His); assay: cell-based or functional assay; remark: listed apart in the source
p5 peptide of EGFL7 [11] = molecular target: T5, p5 peptide of EGFL7; assay: SPR (Biacore), IgG over immobilized P5 peptide at 37 C;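 note: IgG variants injected at 0.5–1000 nM (2-fold series), 3 min association and 3.5 min dissociation, reference flow cell subtracted, kinetics fitted with a 1:1 Langmuir model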
[12] = molecular target: T4, truncated human EGFL7 (residues 1-182); assay: phage ELISA on truncated huEGFL7 immobilized on a microtiter plate

B1: 4F11.v17 IgG (antibody, V domains shown)
VH: EVQLVESGGGLVQPGGSLRLSCAASGHTFTTYGMSWVRQAPGKGLEWVGWINTHSGVPTYADDFKGRFTISLDNSKNTAYLQMNSLRAEDTAVYYCARLGSYAVDYWGQGTLVTVSS
VL: DIQMTQSPSSLSASVGDRVTITCKASQSVDYSGDSYMSWYQQKPGKAPKLLIYGASYRESGVPSRFSGSGSGTDFTLTISSLQPEDFATYYCQQNNEEPYTFGQGTKVEIKR
notes: IgG; Library 1 framework; also called hu4F11.v17
In the case of B1, the “Cell Adhesion Assay (human EGFL7) Variant/ch4F11 (fold)” value [1] is reported as 0.86 fold, the “IC50 (read off the curve), HUVEC adhesion” value [2] is reported as ~10 µg/mL and the “Fold change in KD variant/(chimera)” value [3] is reported as 0.93 fold.

B2: 4F11.v22 IgG (antibody, V domains shown)
VH: EIQLVESGGGLVQPGGSLRLSCAASGHTFTTYGMSWVRQAPGKGLEWMGWINTHSGVPTYADDFKGRFTISLDNSKSTAYLQMNSLRAEDTAVYFCARLGSYAVDYWGQGTLVTVSS
VL: DIQMTQSPSSLSASVGDRVTITCKASQSVDYSGDSYMSWYQQKPGKAPKLLIYGASYRESGVPSRFSGSGSGTDFTLTISSLQPEDFATYYCQQNNEEPYTFGQGTKVEIKR
notes: IgG; Library 2 framework
For B2, the “Cell Adhesion Assay (human EGFL7) Variant/ch4F11 (fold)” value [1] was 0.81 fold and the “Fold change in KD variant/(chimera)” value [3] was 1 fold.

B3: phage displaying 4F11.v1 Fab (Fab, V domains shown)
VH: EVQLVESGGGLVQPGGSLRLSCAASGHTFTTYGMSWVRQAPGKGLEWVGWINTHSGVPTYADDFKGRFTISRDNSKNTLYLQMNSLRAEDTAVYYCARLGSSAVDYWGQGTLVTVSS
VL: DIQMTQSPSSLSASVGDRVTITCKASQSVDYDGDSYMSWYQQKPGKAPKLLIYGASNLESGVPSRFSGSGSGTDFTLTISSLQPEDFATYYCQQNNEDPYTFGQGTKVEIKR
notes: Monovalent Fab-g3 display on M13 phage; heavy chain VH-CH1 fused to minor coat protein P3; also called 4F11.v1 phage; 4F11-graft Fab on phage
B3: binds [4].

B4: 4F11.v6 IgG (antibody, V domains shown)
VH: EVQLVESGGGLVQPGGSLRLSCAASGHTFTTYGMSWVRQAPGKGLEWVGWINTHSGVPTYADDFKGRFTISRDNSKNTVYLQMNSLRAEDTAVYYCARLGSSAVDYWGQGTLVTVSS
VL: DIQMTQSPSSLSASVGDRVTITCKASQSVDYDGDSYMSWYQQKPGKAPKLLIYGASYLESGVPSRFSGSGSGTDFTLTISSLQPEDFATYYCQQNNEDPYTFGQGTKVEIK
notes: IgG; Kabat numbering
In the case of B4, the “Cell Adhesion Assay Variant/ch4F11 (fold)” value [5] is reported as 4.01 fold, the Kd [6] is reported as 19.5 nM and the koff [6] is reported as 0.0024 s⁻¹. For the same binder, the kon [6] was 123000 M⁻¹ s⁻¹.

B5: 4F11.v10 IgG (antibody, V domains shown)
VH: EVQLVESGGGLVQPGGSLRLSCAASGHTFTTYGMSWVRQAPGKGLEWVGWINTHSGVPTYADDFKGRFTISRDNSKNTVYLQMNSLRAEDTAVYYCARLGSYAVDYWGQGTLVTVSS
VL: DIQMTQSPSSLSASVGDRVTITCKASQSVDYDGDSYMSWYQQKPGKAPKLLIYGASYLESGVPSRFSGSGSGTDFTLTISSLQPEDFATYYCQQNNEDPYTFGQGTKVEIK
notes: IgG; Kabat numbering
B5 was tested, and the “Cell Adhesion Assay Variant/ch4F11 (fold)” value [5] was 4.38 fold, the Kd [6] was 27.4 nM and the koff [6] was 0.00197 s⁻¹. The kon [6] was 72000 M⁻¹ s⁻¹.

B6: 18F7.v6 IgG (antibody, V domains shown)
VH: EVQLVESGGGLVQPGGSLRLSCAASGYTFIDYYMNWVRQAPGKGLEWVGDINLDNGGTHYNQKFKGRFTISRDKSKNTAYLQMNSLRAEDTAVYYCAREGVYHDYDDYAMDYWGQGTLVTVSS
VL: DIQMTQSPSSLSASVGDRVTITCRTSQSLVHINGITYLHWYQQKPGKAPKLLIYRVSNRFSGVPSRFSGSGSGTDFTLTISSLQPEDFATYYCGQSTHVPLTFGQGTKVEIKR
notes: IgG; also called hu18F7.v6
B6 was tested, and the “IC50, HUVEC adhesion [left panel]” value [7] was 5.62 nM, the Kd [8] was 0.408 nM and the koff [8] was 2.04e-05 s⁻¹. For the same binder, the kon [8] was 50000 M⁻¹ s⁻¹, the Kd (p5 peptide of EGFL7 [9]) was 3.21 nM and the koff (p5 peptide of EGFL7 [9]) was 0.000389 s⁻¹. The kon (p5 peptide of EGFL7 [9]) was 121000 M⁻¹ s⁻¹.

B7: 18F7.v6K IgG (antibody, V domains shown)
VH: EVQLVESGGGLVQPGGSLRLSCAASGYTFIDYYMNWVRQAPGKGLEWVGDINLDNSGTHYNQKFKGRFTISRDKSKNTAYLQMNSLRAEDTAVYYCAREGVYHDYDDYAMDYWGQGTLVTVSS
VL: DIQMTQSPSSLSASVGDRVTITCRTSQSLVHINAITYLHWYQQKPGKAPKLLIYRVSNRFSGVPSRFSGSGSGTDFTLTISSLQPEDFATYYCGQSTHVPLTFGQGTKVEIKR
notes: IgG; also called hu18F7.v6k; h18F7.v6k
For B7, the “IC50, HUVEC adhesion [right panel]” value [10] was 6.37 µg/ml and 42 nM, the Kd [8] was 1.6 nM and the koff [8] was 4.54e-05 s⁻¹. It also gave a kon [8] of 28000 M⁻¹ s⁻¹, a Kd (p5 peptide of EGFL7 [11]) of 5.2 nM and a koff (p5 peptide of EGFL7 [11]) of 0.000662 s⁻¹. It also gave a kon (p5 peptide of EGFL7 [11]) of 127000 M⁻¹ s⁻¹.

B8: phage displaying 18F7-graft Fab (Fab, V domains shown)
VH: EVQLVESGGGLVQPGGSLRLSCAASGYTFIDYYMNWVRQAPGKGLEWVGDINLDNGGTHYNQKFKGRFTISRDNSKNTLYLQMNSLRAEDTAVYYCAREGVYHDYDDYAMDYWGQGTLVTVSS
VL: DIQMTQSPSSLSASVGDRVTITCRTSQSLVHINGITYLHWYQQKPGKAPKLLIYRVSNRFSGVPSRFSGSGSGTDFTLTISSLQPEDFATYYCSQSTHVPLTFGQGTKVEIKR
notes: Monovalent Fab-g3 display on M13 phage; heavy chain VH-CH1 fused to P3; also called 18F7-graft phage
B8: binds [12].
